Data: the supplement of paper PMC7125110
± gives the standard error. This sample holds only a part of the variants without activity.

B1: glmS ribozyme (parent)
chain: AUAAAAGCGCCAGAACUACAGAAAUGUAGUUGACGAGGAGGAGGUUUAUCGAAUUUUCGGCGGAUGCCUCCAAA

Experiments:
Details in all cases: with glucosamine-6-phosphate
[1] = variants of: B1; assay: self-cleavage kobs at 40 uM GlcN6P; higher = faster cleavage; RNA array
Method in brief: (§1)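 Sequenced MiSeq chips were the platform: E. coli RNA polymerase transcribed barcoded ribozyme variants on them in situ, and a hybridised Cy3 probe tracked these at 37 °C. After glucosamine-6-phosphate (40 μM to 10 mM) in HEPES/KCl/Mg(OAc)2 buffer was flowed in, tiles were imaged over ~14 h. Signals normalised to baseline and to non-cleaving reference variants were reduced to per-tile medians and fit to one- or two-exponential decays to obtain kobs. kcat and KM were derived through weighted Michaelis–Menten fits across concentrations.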

[2] = variants of: B1; assay: self-cleavage kobs at 2500 uM GlcN6P; higher = faster cleavage; RNA array
Method in brief: as §1

[3] = variants of: B1; assay: self-cleavage kobs at 10000 uM GlcN6P; higher = faster cleavage; RNA array
Method in brief: as §1

[4] = variants of: B1; assay: self-cleavage kobs at 160 uM GlcN6P; higher = faster cleavage; RNA array
Method in brief: as §1

[5] = variants of: B1; assay: self-cleavage kobs at 640 uM GlcN6P; higher = faster cleavage; RNA array
Method in brief: as §1

Variant	self-cleavage kobs at 40 uM GlcN6P [1] [s⁻¹]	self-cleavage kobs at 2500 uM GlcN6P [2] [s⁻¹]	self-cleavage kobs at 10000 uM GlcN6P [3] [s⁻¹]	self-cleavage kobs at 160 uM GlcN6P [4] [s⁻¹]	self-cleavage kobs at 640 uM GlcN6P [5] [s⁻¹]
C8G A39U A53C C58U	< 1e-05				
C8G U65A	< 1e-05				
C8A U30G U31C	< 1e-05	< 1e-05	< 1e-05		
C8G C68U	< 1e-05				
C8G C68G	< 1e-05		< 1e-05	< 1e-05	
C8G G29U G66U	< 1e-05				
C8G U56C G62C	< 1e-05	< 1e-05	< 1e-05		< 1e-05
C8G A15U	< 1e-05	< 1e-05	< 1e-05	< 1e-05	< 1e-05
C8U U45C	< 1e-05	< 1e-05		< 1e-05	< 1e-05
C8A G26U A33C	< 1e-05				
C8G A14C	< 1e-05	< 1e-05	< 1e-05	< 1e-05	< 1e-05
C8U C11U U45C G63C	< 1e-05				
C8U A14U G44U	< 1e-05				
C8G A14G A33G	< 1e-05	< 1e-05	< 1e-05		
C8G U65G C68A	< 1e-05	< 1e-05			
G9C A52U	< 1e-05	< 1e-05	< 1e-05	< 1e-05	< 1e-05
C8A G43C C67U	< 1e-05	< 1e-05			< 1e-05
C8A U30A	< 1e-05	< 1e-05	< 1e-05	< 1e-05	
C8A U49G	< 1e-05	< 1e-05	< 1e-05	< 1e-05	< 1e-05
C8U G35U	< 1e-05	< 1e-05	< 1e-05	< 1e-05	< 1e-05
G9A G13A G63C	< 1e-05		< 1e-05		
C8U G38U	< 1e-05	< 1e-05		< 1e-05	
C8A G40A G63A	< 1e-05		< 1e-05		
G9C G44A A52U	< 1e-05				

Variant	self-cleavage kobs at 40 uM GlcN6P [1] [s⁻¹]	self-cleavage kobs at 2500 uM GlcN6P [2] [s⁻¹]	self-cleavage kobs at 10000 uM GlcN6P [3] [s⁻¹]	self-cleavage kobs at 160 uM GlcN6P [4] [s⁻¹]	self-cleavage kobs at 640 uM GlcN6P [5] [s⁻¹]
C8U C10A G40C C67A	< 1e-05				
C8U U69G	0.000157 ± 3.4e-05		0.000167 ± 3.1e-05		0.00216 ± 0.00095
C8U G32C G60U	< 1e-05	< 1e-05	< 1e-05	< 1e-05	< 1e-05
C8U C34U	< 1e-05		< 1e-05		< 1e-05
C8U U31G	< 1e-05	< 1e-05	< 1e-05	< 1e-05	< 1e-05
C8A C71A	< 1e-05	< 1e-05	< 1e-05	< 1e-05	< 1e-05
G9A G13A G43U G60A	< 1e-05				
C8G G13U G21A U30A	< 1e-05		< 1e-05		
G9U A36G	< 1e-05	< 1e-05	< 1e-05		
C8A U45A	< 1e-05	< 1e-05	< 1e-05	< 1e-05	< 1e-05
C8A U45C	< 1e-05	< 1e-05			< 1e-05
G9C G63A	< 1e-05				< 1e-05
G9C A12G G37C U47C G60A C71U	< 1e-05		< 1e-05		
C8U G38C G44U A48C	< 1e-05				
C8U G9U U30G A64C	< 1e-05		< 1e-05		
C8A G29C	< 1e-05	< 1e-05	< 1e-05	< 1e-05	< 1e-05
C8G U31G	< 1e-05	< 1e-05		< 1e-05	< 1e-05
G9A G60A	< 1e-05				< 1e-05
G9C U46C	< 1e-05		< 1e-05		< 1e-05
C8A G37C U69G C71G	0.000455 ± 0.00017				
G9A U57G	< 1e-05	< 1e-05		< 1e-05	< 1e-05
C8G U55A C61A	< 1e-05				
G9C A33U	< 1e-05	< 1e-05	< 1e-05	< 1e-05	< 1e-05
G9A A42C C71A	< 1e-05	< 1e-05	< 1e-05	< 1e-05	< 1e-05

Variant	self-cleavage kobs at 40 uM GlcN6P [1] [s⁻¹]	self-cleavage kobs at 2500 uM GlcN6P [2] [s⁻¹]	self-cleavage kobs at 10000 uM GlcN6P [3] [s⁻¹]	self-cleavage kobs at 160 uM GlcN6P [4] [s⁻¹]	self-cleavage kobs at 640 uM GlcN6P [5] [s⁻¹]
C8A G62A	< 1e-05		< 1e-05	< 1e-05	< 1e-05
C8G U56A	< 1e-05	< 1e-05			< 1e-05
C8G A48G C58G	< 1e-05		< 1e-05	< 1e-05	< 1e-05
G9U G32A A53C U55G G63U	< 1e-05				
G9A U47G A48U	< 1e-05				
C8U G40C	< 1e-05		< 1e-05		< 1e-05
G9A A52U U65G	< 1e-05				
G9A C50G	0.000112 ± 1.8e-05		9.95e-05 ± 1.1e-05	0.000137 ± 3.9e-05	0.00113 ± 0.00048
G9A C34U	< 1e-05		< 1e-05		< 1e-05
G9C G59U	< 1e-05	< 1e-05		< 1e-05	< 1e-05
G9U A15G	< 1e-05	< 1e-05			< 1e-05
C8G A12U A33U G60C	< 1e-05		< 1e-05		
G9C G32C C68A	< 1e-05	< 1e-05	< 1e-05		< 1e-05
G9C U31G	< 1e-05	< 1e-05		< 1e-05	< 1e-05
G9C A39C G44C	< 1e-05				
C8U A33C G44A C50G	< 1e-05	< 1e-05			< 1e-05
G9A C11A G35C A42G	< 1e-05		< 1e-05		
C8U A36C G41C	< 1e-05				
C8U A15G	< 1e-05		< 1e-05	< 1e-05	< 1e-05
C8U A15C	< 1e-05			< 1e-05	< 1e-05
G9A G13C	< 1e-05	< 1e-05		< 1e-05	< 1e-05
G9C A36G	< 1e-05		< 1e-05		< 1e-05
G9C A36U	< 1e-05	< 1e-05			< 1e-05
C8G G41U C61U	< 1e-05		< 1e-05	< 1e-05	

Variant	self-cleavage kobs at 40 uM GlcN6P [1] [s⁻¹]	self-cleavage kobs at 2500 uM GlcN6P [2] [s⁻¹]	self-cleavage kobs at 10000 uM GlcN6P [3] [s⁻¹]	self-cleavage kobs at 160 uM GlcN6P [4] [s⁻¹]	self-cleavage kobs at 640 uM GlcN6P [5] [s⁻¹]
G9C G13U G44C U45G	< 1e-05	< 1e-05			< 1e-05
G9C C70A	< 1e-05		< 1e-05	< 1e-05	< 1e-05
C8G U31C A36U U57A	< 1e-05	< 1e-05			
C8U G29A G60U	< 1e-05		< 1e-05		< 1e-05
C8G U54A C67A	< 1e-05				
G9U G35C G66U	< 1e-05		< 1e-05		
C8G U47G C68A	< 1e-05	< 1e-05			
G9U G37A C67U C71G	< 1e-05				
G9C C34G	< 1e-05	< 1e-05	< 1e-05	< 1e-05	< 1e-05
G9A C67U	< 1e-05	< 1e-05		< 1e-05	
G9A G59U A64U U65C	< 1e-05		< 1e-05		
C8U G59C	< 1e-05	< 1e-05	< 1e-05		< 1e-05
C8G A33C C67G	< 1e-05				< 1e-05
C8G A48C	< 1e-05	< 1e-05		< 1e-05	
G9A C11G A52C C68U	< 1e-05		< 1e-05		
G9U A14C	< 1e-05			< 1e-05	< 1e-05
G9C A48C	< 1e-05	< 1e-05			< 1e-05
C8G A39C U55G G59U	< 1e-05		< 1e-05		
G9A C10G	< 1e-05	< 1e-05		< 1e-05	
G9A A64C	< 1e-05	< 1e-05		< 1e-05	< 1e-05
C8G A14G U31C	< 1e-05				
